# Results reported in patent US20180362632A1 (published 2018).
# “And” between values parts separate entries of the source, which are not always exact repeats. Equal values may be shown once.
# Molecular target: T1, recombinant human GM-CSF protein (human, UniProt P04141 18-144)
# Assay: ELISA
# T1 sequence (P04141 18-144): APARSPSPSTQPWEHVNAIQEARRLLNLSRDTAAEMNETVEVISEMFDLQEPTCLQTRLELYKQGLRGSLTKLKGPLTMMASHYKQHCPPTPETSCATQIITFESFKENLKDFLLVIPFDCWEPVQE
row,EC50 [pM],Binder
1,3520,"Hu50C5-13 (antibody, V domains shown) VH: EVQLVQSGAEVKKPGSSVKVSCKASGYIFSPYSIHWVRQAPGQGLEWIGYINPSTGYIEYNQHFKDRVTITADKSTSTAYMELRSLRSEDTAVYYCARGGDYEGYFDYWGQGTTVTVSS VL: DIQMTQSPSSLSASVGDRVTITCRLNENIYSFLAWYQQKPGKAPKLLVYNAETLAEDVPSRFSGSGSGTDFTLTISSLQPEDFATYYCQQHYGTPYTFGGGTKVEIK"
2,2740,"Hu50C5-1 (antibody, V domains shown) VH: EVQLVQSGAEVKKPGSSVKVSCKASGGTFSPYSIHWVRQAPGQGLEWMGYINPSTGYIEYNQHFKDRVTITADKSTSTAYMELRSLRSEDTAVYYCARGGDYEGYFDYWGQGTTVTVSS VL: DIQMTQSPSSLSASVGDRVTITCRLNENIYSFLAWYQQKPGKAPKLLIYNAETLAEGVPSRFSGSGSGTDFTLTISSLQPEDFATYYCQQHYGTPYTFGGGTKVEIK"
3,534,"Hu50C5-5 (antibody, V domains shown) VH: EVQLVQSGAEVKKPGSSVKVSCKASGGTFSPYSIHWVRQAPGQGLEWMGYINPSTGYIEYNQHFKDRVTITADKSTSTAYMELRSLRSEDTAVYYCARGGDYEGYFDYWGQGTTVTVSS VL: DIQMTQSPSSLSASVGDRVTITCRLNENIYSFLAWYQQKPGKSPKLLVYNAETLAEDVPSRFSGSGSGTQFTLTISSLQPEDFATYYCQQHYGTPYTFGGGTKVEIK"
4,2190,"Hu50C5-2 (antibody, V domains shown) VH: EVQLVQSGAEVKKPGSSVKVSCKASGGTFSPYSIHWVRQAPGQGLEWMGYINPSTGYIEYNQHFKDRVTITADKSTSTAYMELRSLRSEDTAVYYCARGGDYEGYFDYWGQGTTVTVSS VL: DIQMTQSPSSLSASVGDRVTITCRLNENIYSFLAWYQQKPGKAPKLLVYNAETLAEGVPSRFSGSGSGTDFTLTISSLQPEDFATYYCQQHYGTPYTFGGGTKVEIK"

# Molecular target: T1, recombinant human GM-CSF protein
# Assay: ELISA
# Remark: another data set of the same source
row,EC50,Binder
1,81 pM and 92.3 pM,"23F4 chimera (antibody, V domains shown) VH: QVQLQQSGPELVKPGTSMKISCKTSDYTLTSHYLHWVKQRPGQGLEWIGWIFPGDDKTKYNEKFKGKATLTSDKTSNTAYMQLSSLTSEESAVYFCARGTKYLNWNFDVWGTGTTVTVSS VL: DIVLTQPQKFLSTSVGDRVSVTCKANQNVGTTLAWYQQKPGQSPKALIYSASYRYSGVPDRFTGSGSGTDFTLTISNVQSEDLAEYFCHQYTTYPLTFGGGTKLEIK"

# Molecular target: T1, recombinant human GM-CSF protein
# Assay: ELISA
# Remark: another data set of the same source
row,EC50,Binder
1,92 pM and 88.1 pM,"23F4 chimera (antibody, V domains shown) VH: QVQLQQSGPELVKPGTSMKISCKTSDYTLTSHYLHWVKQRPGQGLEWIGWIFPGDDKTKYNEKFKGKATLTSDKTSNTAYMQLSSLTSEESAVYFCARGTKYLNWNFDVWGTGTTVTVSS VL: DIVLTQPQKFLSTSVGDRVSVTCKANQNVGTTLAWYQQKPGQSPKALIYSASYRYSGVPDRFTGSGSGTDFTLTISNVQSEDLAEYFCHQYTTYPLTFGGGTKLEIK"
2,62.4 pM,"Hu23F4-35 (antibody, V domains shown) VH: EVQLVQSGAEVKKPGASVKVSCKASGYTFTSHYLHWVRQAPGQGLEWIGWIFPGDDKTKYNEKFKGRATLTSDTSISTAYMELSRLRSDDTAVYYCARGTKYLNWNFDVWGQGTTVTVSS VL: DIQLTQSPSFLSASVGDRVTITCKANQNVGTTLAWYQQKPGKSPKALIYSASYRYSGVPDRFSGSGSGTDFTLTISSLQPEDFATYFCHQYTTYPLTFGGGTKVEIK"
3,87.3 pM,"Hu23F4-32 (antibody, V domains shown) VH: EVQLVQSGAEVKKPGASVKVSCKASGYTFTSHYLHWVRQAPGQGLEWIGWIFPGDDKTKYNEKFKGRATLTSDTSISTAYMELSRLRSDDTAVYYCARGTKYLNWNFDVWGQGTTVTVSS VL: DIQLTQSPSFLSASVGDRVTITCKANQNVGTTLAWYQQKPGKAPKLLIYSASYRYSGVPSRFSGSGSGTEFTLTISSLQPEDFATYYCHQYTTYPLTFGGGTKVEIK"
4,95.4 pM,"Hu23F4-33 (antibody, V domains shown) VH: EVQLVQSGAEVKKPGASVKVSCKASGYTFTSHYLHWVRQAPGQGLEWIGWIFPGDDKTKYNEKFKGRATLTSDTSISTAYMELSRLRSDDTAVYYCARGTKYLNWNFDVWGQGTTVTVSS VL: DIQLTQSPSFLSASVGDRVTITCKANQNVGTTLAWYQQKPGKAPKALIYSASYRYSGVPSRFSGSGSGTEFTLTISSLQPEDFATYYCHQYTTYPLTFGGGTKVEIK"
5,42.4 pM,"Hu23F4-31 (antibody, V domains shown) VH: EVQLVQSGAEVKKPGASVKVSCKASGYTFTSHYLHWVRQAPGQGLEWMGWIFPGDDKTKYNEKFKGRVTLTSDTSISTAYMELSRLRSDDTAVYYCARGTKYLNWNFDVWGQGTTVTVSS VL: DIQLTQSPSFLSASVGDRVTITCKANQNVGTTLAWYQQKPGKSPKALIYSASYRYSGVPDRFSGSGSGTDFTLTISSLQPEDFATYFCHQYTTYPLTFGGGTKVEIK"
6,26.8 pM,"Hu23F4-25 (antibody, V domains shown) VH: EVQLVQSGAEVKKPGASVKVSCKASGYTFTSHYLHWVRQAPGQGLEWMGWIFPGDDKTKYNEKFKGRVTMTSDTSISTAYMELSRLRSDDTAVYYCARGTKYLNWNFDVWGQGTTVTVSS VL: DIQLTQSPSFLSASVGDRVTITCKANQNVGTTLAWYQQKPGKAPKALIYSASYRYSGVPSRFSGSGSGTEFTLTISSLQPEDFATYYCHQYTTYPLTFGGGTKVEIK"
7,97.7 pM,"Hu23F4-34 (antibody, V domains shown) VH: EVQLVQSGAEVKKPGASVKVSCKASGYTFTSHYLHWVRQAPGQGLEWIGWIFPGDDKTKYNEKFKGRATLTSDTSISTAYMELSRLRSDDTAVYYCARGTKYLNWNFDVWGQGTTVTVSS VL: DIQLTQSPSFLSASVGDRVTITCKANQNVGTTLAWYQQKPGKAPKALIYSASYRYSGVPDRFSGSGSGTDFTLTISSLQPEDFATYYCHQYTTYPLTFGGGTKVEIK"
8,41.1 pM,"Hu23F4-30 (antibody, V domains shown) VH: EVQLVQSGAEVKKPGASVKVSCKASGYTFTSHYLHWVRQAPGQGLEWMGWIFPGDDKTKYNEKFKGRVTLTSDTSISTAYMELSRLRSDDTAVYYCARGTKYLNWNFDVWGQGTTVTVSS VL: DIQLTQSPSFLSASVGDRVTITCKANQNVGTTLAWYQQKPGKAPKALIYSASYRYSGVPDRFSGSGSGTDFTLTISSLQPEDFATYYCHQYTTYPLTFGGGTKVEIK"
9,38.4 pM,"Hu23F4-27 (antibody, V domains shown) VH: EVQLVQSGAEVKKPGASVKVSCKASGYTFTSHYLHWVRQAPGQGLEWMGWIFPGDDKTKYNEKFKGRVTMTSDTSISTAYMELSRLRSDDTAVYYCARGTKYLNWNFDVWGQGTTVTVSS VL: DIQLTQSPSFLSASVGDRVTITCKANQNVGTTLAWYQQKPGKSPKALIYSASYRYSGVPDRFSGSGSGTDFTLTISSLQPEDFATYFCHQYTTYPLTFGGGTKVEIK"
10,100 pM,"Hu23F4-28 (antibody, V domains shown) VH: EVQLVQSGAEVKKPGASVKVSCKASGYTFTSHYLHWVRQAPGQGLEWMGWIFPGDDKTKYNEKFKGRVTLTSDTSISTAYMELSRLRSDDTAVYYCARGTKYLNWNFDVWGQGTTVTVSS VL: DIQLTQSPSFLSASVGDRVTITCKANQNVGTTLAWYQQKPGKAPKLLIYSASYRYSGVPSRFSGSGSGTEFTLTISSLQPEDFATYYCHQYTTYPLTFGGGTKVEIK"
11,127 pM,"Hu23F4-37 (antibody, V domains shown) VH: EVQLVQSGAEVKKPGASVKVSCKASDYTLTSHYLHWVRQAPGQGLEWIGWIFPGDDKTKYNEKFKGRATLTSDTSISTAYMELSRLRSDDTAVYYCARGTKYLNWNFDVWGQGTTVTVSS VL: DIQLTQSPSFLSASVGDRVTITCKANQNVGTTLAWYQQKPGKAPKALIYSASYRYSGVPSRFSGSGSGTEFTLTISSLQPEDFATYYCHQYTTYPLTFGGGTKVEIK"
12,34.8 pM,"Hu23F4-26 (antibody, V domains shown) VH: EVQLVQSGAEVKKPGASVKVSCKASGYTFTSHYLHWVRQAPGQGLEWMGWIFPGDDKTKYNEKFKGRVTMTSDTSISTAYMELSRLRSDDTAVYYCARGTKYLNWNFDVWGQGTTVTVSS VL: DIQLTQSPSFLSASVGDRVTITCKANQNVGTTLAWYQQKPGKAPKALIYSASYRYSGVPDRFSGSGSGTDFTLTISSLQPEDFATYYCHQYTTYPLTFGGGTKVEIK"
13,90.8 pM,"Hu23F4-24 (antibody, V domains shown) VH: EVQLVQSGAEVKKPGASVKVSCKASGYTFTSHYLHWVRQAPGQGLEWMGWIFPGDDKTKYNEKFKGRVTMTSDTSISTAYMELSRLRSDDTAVYYCARGTKYLNWNFDVWGQGTTVTVSS VL: DIQLTQSPSFLSASVGDRVTITCKANQNVGTTLAWYQQKPGKAPKLLIYSASYRYSGVPSRFSGSGSGTEFTLTISSLQPEDFATYYCHQYTTYPLTFGGGTKVEIK"
14,73.6 pM,"Hu23F4-29 (antibody, V domains shown) VH: EVQLVQSGAEVKKPGASVKVSCKASGYTFTSHYLHWVRQAPGQGLEWMGWIFPGDDKTKYNEKFKGRVTLTSDTSISTAYMELSRLRSDDTAVYYCARGTKYLNWNFDVWGQGTTVTVSS VL: DIQLTQSPSFLSASVGDRVTITCKANQNVGTTLAWYQQKPGKAPKALIYSASYRYSGVPSRFSGSGSGTEFTLTISSLQPEDFATYYCHQYTTYPLTFGGGTKVEIK"
15,47 pM,"Hu23F4-23 (antibody, V domains shown) VH: EVQLVQSGAEVKKPGASVKVSCKASGYTFTSHYLHWVRQAPGQGLEWMGWIFPGDDKTKYNEKFKGRVTMTRDTSISTAYMELSRLRSDDTAVYYCARGTKYLNWNFDVWGQGTTVTVSS VL: DIQLTQSPSFLSASVGDRVTITCKANQNVGTTLAWYQQKPGKSPKALIYSASYRYSGVPDRFSGSGSGTDFTLTISSLQPEDFATYFCHQYTTYPLTFGGGTKVEIK"
16,136 pM,"Hu23F4-38 (antibody, V domains shown) VH: EVQLVQSGAEVKKPGASVKVSCKASDYTLTSHYLHWVRQAPGQGLEWIGWIFPGDDKTKYNEKFKGRATLTSDTSISTAYMELSRLRSDDTAVYYCARGTKYLNWNFDVWGQGTTVTVSS VL: DIQLTQSPSFLSASVGDRVTITCKANQNVGTTLAWYQQKPGKAPKALIYSASYRYSGVPDRFSGSGSGTDFTLTISSLQPEDFATYYCHQYTTYPLTFGGGTKVEIK"
17,38.4 pM,"Hu23F4-36 (antibody, V domains shown) VH: EVQLVQSGAEVKKPGASVKVSCKASDYTLTSHYLHWVRQAPGQGLEWIGWIFPGDDKTKYNEKFKGRATLTSDTSISTAYMELSRLRSDDTAVYYCARGTKYLNWNFDVWGQGTTVTVSS VL: DIQLTQSPSFLSASVGDRVTITCKANQNVGTTLAWYQQKPGKAPKLLIYSASYRYSGVPSRFSGSGSGTEFTLTISSLQPEDFATYYCHQYTTYPLTFGGGTKVEIK"
